Experiment [1] addresses mGypa (mouse Glycophorin A) on transfected BA/F3 cells (mouse, UniProt P14220 1-168). Kind of experiment: flow cytometry on mGypa-transfected BA/F3 cells, anti-mouse IgG-APC secondary.
Experiment [2] has as its target T1, native human AXL on non-transfected human cell lines (A-431, A-549, HeLa, MDA-MB-231, NCI-H1299) (human, UniProt P30530 26-894).
T1 construct: Endogenous AXL of carcinoma cell lines; also called human AXL receptor tyrosine kinase; AXL receptor
T1 sequence: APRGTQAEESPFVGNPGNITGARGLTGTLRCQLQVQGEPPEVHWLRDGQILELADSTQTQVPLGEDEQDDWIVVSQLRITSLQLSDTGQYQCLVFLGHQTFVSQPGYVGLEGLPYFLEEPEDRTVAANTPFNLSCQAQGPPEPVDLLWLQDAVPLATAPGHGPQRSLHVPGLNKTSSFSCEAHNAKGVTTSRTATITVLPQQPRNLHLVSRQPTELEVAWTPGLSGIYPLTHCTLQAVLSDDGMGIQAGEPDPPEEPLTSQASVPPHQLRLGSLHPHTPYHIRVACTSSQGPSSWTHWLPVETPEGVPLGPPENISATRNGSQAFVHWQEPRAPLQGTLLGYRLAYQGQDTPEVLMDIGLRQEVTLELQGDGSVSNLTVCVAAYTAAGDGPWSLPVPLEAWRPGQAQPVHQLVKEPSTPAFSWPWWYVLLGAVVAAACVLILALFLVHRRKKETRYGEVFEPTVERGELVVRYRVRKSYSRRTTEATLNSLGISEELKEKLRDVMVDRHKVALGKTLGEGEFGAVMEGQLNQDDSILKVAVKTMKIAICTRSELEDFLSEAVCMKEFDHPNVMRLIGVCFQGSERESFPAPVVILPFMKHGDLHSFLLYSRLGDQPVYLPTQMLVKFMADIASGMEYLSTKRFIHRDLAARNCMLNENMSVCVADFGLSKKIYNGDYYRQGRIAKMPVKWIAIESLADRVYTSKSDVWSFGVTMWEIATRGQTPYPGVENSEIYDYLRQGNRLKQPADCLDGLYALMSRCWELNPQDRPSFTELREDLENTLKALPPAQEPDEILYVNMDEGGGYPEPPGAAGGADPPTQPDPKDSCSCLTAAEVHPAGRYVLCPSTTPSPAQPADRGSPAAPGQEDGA
Kind of experiment: flow cytometry, PE conjugate on A-431, A-549, HeLa, MDA-MB-231 and NCI-H1299 cells. The source says: In contrast, the cell lines used for FIGS. 2F-2G (TH-29 and Jurkat, respectively) are known to be negative for human AXL and were thus used as negative controls.
Once cells reached 80% confluency, cells were detached from the flask using 0.25% Trypsin-0.1% EDTA and suspended in cell staining buffer. […] Cells were washed with FACS buffer and analyzed on a BD Canto II flow cytometer.

Experiment [3] deals with T2, Human AXLΔcyto-IG (human AXL lacking the cytoplasmic domain) on transfected BA/F3 cells (human, UniProt P30530 26-472, limits assumed).
T2 construct: GFP is co-expressed from the vector; also called huAXLΔcyto-IG; human AXL transfected BA/F3 cells
T2 sequence: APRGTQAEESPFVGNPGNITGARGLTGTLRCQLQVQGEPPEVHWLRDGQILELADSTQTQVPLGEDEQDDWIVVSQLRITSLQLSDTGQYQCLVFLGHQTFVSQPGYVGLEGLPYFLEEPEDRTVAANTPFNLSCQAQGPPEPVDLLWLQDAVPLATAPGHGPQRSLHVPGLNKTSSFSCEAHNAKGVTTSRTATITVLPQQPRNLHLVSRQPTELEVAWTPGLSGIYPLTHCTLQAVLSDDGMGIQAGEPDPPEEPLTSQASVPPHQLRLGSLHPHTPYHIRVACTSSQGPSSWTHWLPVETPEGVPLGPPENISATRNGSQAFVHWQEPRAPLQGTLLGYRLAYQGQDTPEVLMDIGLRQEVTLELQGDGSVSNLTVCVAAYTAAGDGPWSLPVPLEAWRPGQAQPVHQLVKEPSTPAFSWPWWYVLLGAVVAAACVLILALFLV
Kind of experiment: flow cytometry on Human AXLΔcyto-IG transfected BA/F3 cells, anti-mouse IgG-APC secondary. The protocol:
(§1) FIG. 1A depicts surface staining on BA/F3 cells transfected with human AXL, and FIG. 1B depicts surface staining on BA/F3 cells transfected with mGypa (mouse Glycophorin A) as a control. BA/F3 cells (IL-3 dependent mouse pro-B cell line) were used to eliminate the possibility of human proteins being expressed. The transfection efficiency was measured by GFP, which is used to visualize/identify cells that have been transfected and are expressing the vector. GFP (or FITC) on the x-axis identifies cells that are positive for GFP (i.e., cells that have been transfected). […] Cells were then washed and stained with a secondary antibody (anti-mouse IgG-APC).
(§2) In a first experiment, exemplary anti-human AXL antibodies were assessed on an IL-3 dependent murine pro B cell line (BA/F3, RIKEN CELL BANK, Cat #RCB4476), transfected with Human AXLΔcyto-IG (Ba/F3 cells were retrovirally transduced with human AXL lacking the cytoplasmic domain and GFP). […] Cells were then washed twice with FACS wash buffer and stained with anti-mouse IgG-APC secondary antibody for 15 minutes. Cells were washed with FACS buffer and analyzed on a BD Canto II and corresponding data was analyzed by FlowJo.

Experiment [4] deals with T3, hAXL recombinant protein (Sino Biological, Catalog #10279-H08H) (human, UniProt P30530 26-449).
T3 construct: Bought soluble protein; also called human AXL recombinant protein; recombinant human AXL protein
T3 sequence: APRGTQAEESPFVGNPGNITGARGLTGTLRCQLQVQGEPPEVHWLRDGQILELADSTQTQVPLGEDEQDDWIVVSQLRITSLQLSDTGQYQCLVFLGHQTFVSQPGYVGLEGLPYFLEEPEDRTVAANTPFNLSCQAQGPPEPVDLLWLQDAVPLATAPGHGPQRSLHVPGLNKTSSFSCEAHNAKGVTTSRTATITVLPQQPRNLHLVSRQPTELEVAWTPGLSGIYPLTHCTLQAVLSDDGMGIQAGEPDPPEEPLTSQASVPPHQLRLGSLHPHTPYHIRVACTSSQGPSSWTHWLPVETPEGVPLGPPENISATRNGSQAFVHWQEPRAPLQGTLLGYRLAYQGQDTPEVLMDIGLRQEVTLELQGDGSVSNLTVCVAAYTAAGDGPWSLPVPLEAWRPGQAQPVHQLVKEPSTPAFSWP
Nature of the experiment: pre-incubation of antibody with soluble recombinant human AXL, then flow cytometry on human AXL-transfected BA/F3 cells (FIG. 3B). The procedure:
(§3) In each case, cell populations of interest were selected by setting and displaying gates (for visual comparison purposes) based on the corresponding isotype control.
(§4) PE conjugated mIgG1 and mIgG2a, or PU-IgG1 were used as controls. After incubation, 2×10⁶/100 μL of huAXLΔcyto-IG transfected BA/F3 cells were added to each tube, and cells were acquired on a BD Canto II and corresponding data was analyzed by FlowJo.

In experiment [5] the target is T3, hAXL recombinant protein (Sino …). Nature of the experiment: pre-incubation of antibody with soluble recombinant human AXL, then flow cytometry on human AXL-transfected BA/F3 cells (FIG. 3D). The protocol:
as §3, §4

In experiment [6] the target is T2, Human AXLΔcyto-IG (human AXL lacking …). Nature of the experiment: flow cytometry on human AXL-transfected BA/F3 cells, anti-mouse IgG-APC secondary. The protocol:
as §1, §2

Results on six molecules are retold here after US20260042848A1 (BIOLEGEND, published 2026).

Where a chain is given by its changes, count along the chain named.

B1: AB3 (antibody, V domains shown)
VH: QIQLVQSGPELKKPGETVKISCKASGYTFTNYGMNWVKQAPGKGLKWMGWINTYIGEPTYADDFKGRFAFSLETSASTAYLQINNLKNEDMGTYFCARGTTFYAMDYWGQGTSVTVSS
VL: EIVLTQSPTTMAASPGEKITITCSASSSISSNYLHWYQQKPGFSPKLLIYRTSNLASGVPARFSGSGSGTSYSLTIGTMEAEDVATYYCQQGSSILTFGAGTKLELK
notes: Mouse hybridoma monoclonal; also called antibody 3; PE-AB3
As to B1, the binding result in experiment [1] is recorded as “no binding (tested: 1 ug (printed 'lug'))”.

B2: AB5 (antibody, V domains shown)
VH: B1 VH with I55T, G92A, T100D, T101R
VL: B1 VL with A61T, L96F, A100S, L106I
notes: Mouse hybridoma monoclonal; also called antibody 5; PE-AB5
B2: the binding result in experiment [2] is “binds”; in experiment [3], “binds”; in experiment [4] it was “binds”; in experiment [1], “no binding (tested: 1 ug (printed 'lug'))”.

B3: AB1 (antibody, V domains shown)
VH: DVQLQESGPDLVKPSQSLSLTCTVTGYSITSAYSWHWIRQFPGNKLEWMGYIHYSGSTNYNPSLKSRISITRDTSKNQFFLQLNSVTTEDTATYYCARSLWFYAMDYWGQGTSVTVSS
VL: DVQITQSPSYLAASPGETITINCRASKSISKYLAWYQEKPGKTNKLLIYSGSTLQSGIPSRFSGSGSGTDFTLTISSLEPEDFAMYYCQQHNEYPWTFGGGTKLEIK
notes: Mouse hybridoma monoclonal; also called antibody 1; PU-conjugated AB1
For B3, the values for the binding result in experiment [5], in experiment [1] and in experiment [6] were “binds”, “no binding (tested: 1 ug (printed 'lug'))” and “binds”, respectively.

B4: AB2 (antibody, V domains shown)
VH: B3 VH
VL: DIQMNQSPSSLSASLGDTITITCHASQNINVWLNWYQQKPGNIPKLLIYKASNLHTGVPSRFSGSGSGTGFTLTISSLQPEDIATYYCQQGQSYPLTFGGGTKLEIK
notes: Mouse hybridoma monoclonal; also called antibody 2; PE-AB2
Consider B4, for which the binding result in experiment [1] was “no binding (tested: 1 ug (printed 'lug'))”.

B5: AB4 (antibody, V domains shown)
VH: B3 VH with N84S
VL: B3 VL with N22K, Q55H
notes: Mouse hybridoma monoclonal; also called antibody 4; PE-AB4
Take B5: the binding result in experiment [2] is on record as “binds”; in experiment [3], “binds”; in experiment [4] it was “binds”; in experiment [1] it was “no binding (tested: 1 ug (printed 'lug'))”.

B6: AB6 (antibody, V domains shown)
VH: EVNLVESGGGLVQPGGSLKLSCATSGFTFSDYYMYWVRQTPEKRLEWVAYISNGGGSTYYPDTVKGRFTISRDNAKNTLYLQMSRLKSEDTAMYYCARLHFYAMDYWGQGTSVTVSS
VL: DIVMTQSHKFMSTSVGDRVSITCKASQDVSTAVAWYQQKPGQSPKLLIYWASTRHTGVPDRFTGSGSGTDYTLTISSVQAEDLALYYCQQHYNTPFTFGSGTKLEIK
notes: Mouse hybridoma monoclonal; also called antibody 6; PE-AB6
On to B6, for which the binding result in experiment [2] is listed as “binds”; in experiment [3] it was “binds”; in experiment [4] it was “binds”; in experiment [1], “no binding (tested: 1 ug (printed 'lug'))”.
